Measurements published in patent US8198236B2, “Methods and compositions for the treatment of cancer” (Washington University, priority 2007, dated 2012).

What was measured:
[1] = molecular target: T1, LRP6 (Homo sapiens, UniProt O75581); assay: 125I-Mesd cell surface binding to LRP6-transduced HT1080 cells
T1 construct: expressed in transfected cells; host or cells: human HT1080 cells, retroviral vector pLNCX2
Procedure: (§1) To examine whether Mesd binds with high affinity to most members of the LDLR family at the cell surface, we performed cell surface ligand binding experiments with cells stably transduced with LRP6 cDNA. Human HT1080 cells, which express undetectable levels of LRP6, were transduced with a viral vector alone (pLNCX2) or with vector containing LRP6 cDNA (Li, Y., Oncogene 23: 9129-9135, 2004) and used for ^125I-Mesd binding (FIG. 1A). ^125I-Mesd (5 nM) reached maximal binding after 2 hours incubation at 4° C. with LRP6-expressing HT1080 cells (FIG. 1A).
(§2) (A) Time course of ^125I-Mesd (5 nM) binding to LRP6-transduced HT1080 cells and the control cells. Assay was carried out for the indicated periods at 4° C. in the absence (total) or presence of 500 nM Mesd (non-specific). (B) Saturation binding of ^125I-Mesd to LRP6-transduced HT1080 cells and the control cells. Assay was carried out at indicated concentrations for 3 hours at 4° C. in the absence (total) or presence (non-specific) of 500 nM Mesd. (C) Scatchard plots of data in B. All values are the average of triple determinations with the s.d. indicated by error bars.
(§3) Cells (2×10^5) were seeded into 12-well dishes 1 day prior to assay. Ligand-binding buffer (minimal Eagle's medium containing 0.6% BSA with a different concentration of radioligand, 0.6 ml/well) was added to cell monolayers, in the absence or the presence of 500 nM unlabeled RAP or 500 nM unlabeled Mesd, followed with incubation for 0-4 hours at 4° C. Thereafter, overlying buffer containing unbound ligand was removed, and cell monolayers were washed and lysed in low-SDS lysis buffer (62.5 mM Tris-HCl pH 6.8, 0.2% SDS, 10% v/glycerol) and counted.
(§4) To analyze the Mesd sequences that are required for Mesd to bind to mature LRP6 at the cell surface with high affinity, sequences were compared between mouse Mesd and its homologs from different species. […] We thus generated two truncated Mesd mutants lacking either the N-terminal region, MESD (12-195), or both the N-terminal and C-terminal regions, Mesd (12-155) (FIG. 3A). The ability of these mutants to bind to cell surface LRP6 was then assessed.
(§5) In this example, a truncated Mesd mutant containing the last 45 amino acids of C-terminal region was generated (FIG. 3A) and its binding affinity for LRP6 was then analyzed. […] (A) Binding analyses of ^125I-Mesd and its mutant Mesd (150-195) (5 nM) to LRP6-transduced HT1080 cells and control cells. (B) Binding analyses of ^125I-Mesd and its mutant Mesd (150-195) (5 nM) to LRP6-transduced HT1080 cells. Assays were carried out for 3 hours at 4° C. in the absence or presence of 500 nM Mesd or its mutant. Values are the means of triple determinations with the s.d. indicated by error bars.
(§6) LRP6-mediated Mesd uptake and degradation was investigated in the experiments illustrated in FIG. 7. (A) LRP6-mediated ^125I-Mesd (5 nM) degradation in LRP6-transduced HT1080 cells and control cells was carried out for 4 hours at 37° C. in the absence or presence of 500 nM Mesd. (B) ^125I-Mesd (5 nM) binding to LRP6-transduced HT1080 cells and the control cells was carried out for 4 hours at 4° C. in the absence or presence of 500 nM Mesd. Values are the means of triple determinations with the s.d. indicated by error bars.

[2] = system: LRP6; assay: as above; set-up: species or system human; details: HT1080 cells transduced with vector alone
Procedure: as §1, §2, §3, §4, §5, §6

[3] = system: MMTV-Wnt1 tumors; assay: MMTV-Wnt1 tumor transplant growth in nude mice; assay type: in vivo; details: i.p. every other day, first dose 15 mg/kg then 10 mg/kg, three weeks
Procedure: Recombinant Mesd protein was prepared as described (Li Y, et al. (2005) J Cell Sci 118(22): 5305-5314). Mesd peptide, […] (SEQ ID NO: 14), was manufactured by Abgent (San Diego). Female athymic nude mice (Taconic) (6-8 weeks old) were used for passaging tumors from MMTV-Wnt1 mice (Taconic). MMTV-Wnt1 tumors were serially passaged in mice by implantation in the mammary fat pad as described (DeAlmeida V, et al. (2007) Cancer Res 67, 5371-5379). Therapeutic agents (200 μL Mesd protein, Mesd peptide or PBS) were administrated i.p. with a first dose of 15 mg/kg, followed by 10 mg/kg (9 more doses). Three groups of mice were treated every other day for three weeks and tumor volumes were measured thrice weekly.
The pharmacokinetics and bioavailability of Mesd and Mesd peptide ([…] (SEQ ID NO: 14)) were first investigated (FIG. 23). Cells from MMTV-Wnt1 tumors were injected into the mammary fat pads of female nude mice, and the resultant mice were subsequently randomly grouped when the mean tumor volume reached ca. 200 mm^3. […]
In these experiments, mice bearing established MMTV-Wnt1 tumor transplants were divided into three groups (five animals per group) and were i.p. injected with PBS (vehicle), Mesd, or Mesd peptide every other day. Tumor volume was analyzed using caliper measurement. […]

T1 sequence (O75581 20-1613): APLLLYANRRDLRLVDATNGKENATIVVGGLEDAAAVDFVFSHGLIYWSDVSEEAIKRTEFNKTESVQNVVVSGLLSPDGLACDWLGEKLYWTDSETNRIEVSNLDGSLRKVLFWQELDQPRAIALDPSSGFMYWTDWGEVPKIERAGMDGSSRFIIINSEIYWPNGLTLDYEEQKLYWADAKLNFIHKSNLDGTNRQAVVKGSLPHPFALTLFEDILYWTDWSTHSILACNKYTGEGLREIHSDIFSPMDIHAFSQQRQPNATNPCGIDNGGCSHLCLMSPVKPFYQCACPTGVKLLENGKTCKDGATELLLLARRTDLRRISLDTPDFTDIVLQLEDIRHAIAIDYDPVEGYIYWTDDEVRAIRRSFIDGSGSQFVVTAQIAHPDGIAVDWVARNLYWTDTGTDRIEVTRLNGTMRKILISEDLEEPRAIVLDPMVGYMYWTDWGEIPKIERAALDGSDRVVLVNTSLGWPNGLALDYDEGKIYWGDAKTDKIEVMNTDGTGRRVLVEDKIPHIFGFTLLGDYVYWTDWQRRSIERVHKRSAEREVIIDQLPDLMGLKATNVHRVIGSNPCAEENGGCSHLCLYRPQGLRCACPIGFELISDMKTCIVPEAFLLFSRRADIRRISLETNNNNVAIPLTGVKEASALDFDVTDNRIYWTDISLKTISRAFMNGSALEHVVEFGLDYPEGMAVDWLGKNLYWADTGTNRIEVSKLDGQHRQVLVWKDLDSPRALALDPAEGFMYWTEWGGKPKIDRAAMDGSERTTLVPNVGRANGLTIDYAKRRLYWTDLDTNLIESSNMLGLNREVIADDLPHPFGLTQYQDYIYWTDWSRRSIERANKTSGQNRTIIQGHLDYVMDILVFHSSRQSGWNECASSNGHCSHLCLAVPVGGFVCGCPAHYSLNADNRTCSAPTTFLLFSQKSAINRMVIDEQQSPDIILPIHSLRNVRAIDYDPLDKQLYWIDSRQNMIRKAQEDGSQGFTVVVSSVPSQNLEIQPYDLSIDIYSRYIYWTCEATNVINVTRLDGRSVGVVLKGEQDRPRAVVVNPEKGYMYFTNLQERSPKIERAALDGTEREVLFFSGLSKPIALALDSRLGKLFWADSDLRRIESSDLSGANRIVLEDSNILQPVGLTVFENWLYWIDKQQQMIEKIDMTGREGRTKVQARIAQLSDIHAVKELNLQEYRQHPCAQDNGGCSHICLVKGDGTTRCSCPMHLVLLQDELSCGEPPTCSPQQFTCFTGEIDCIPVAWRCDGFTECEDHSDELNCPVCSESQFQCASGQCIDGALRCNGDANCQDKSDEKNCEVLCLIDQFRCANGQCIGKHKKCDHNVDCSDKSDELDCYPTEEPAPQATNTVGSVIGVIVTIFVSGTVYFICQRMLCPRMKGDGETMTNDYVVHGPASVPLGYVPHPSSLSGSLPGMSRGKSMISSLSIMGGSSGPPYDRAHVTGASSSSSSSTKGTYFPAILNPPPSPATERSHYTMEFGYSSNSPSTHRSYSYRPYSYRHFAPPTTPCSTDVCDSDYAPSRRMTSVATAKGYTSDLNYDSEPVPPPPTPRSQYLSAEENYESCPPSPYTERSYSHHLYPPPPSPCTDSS

B1: Mesd: Recombinant full-length mouse Mesd expressed in E. coli, N-terminal polyhistidine tail, lacking the signal peptide (protein)
chain: ADTPGEATPPPRKKKDIRDYNDADMARLLEQWEKDDDIEEGDLPEHKRPSAPIDFSKLDPGKPESILKMTKKGKTLMMFVTVSGNPTEKETEEITSLWQGSLFNANYDVQRFIVGSDRAIFMLRDGSYAWEIKDFLVSQDRCAEVTLEGQMYPGKGGGSKEKNKTKPEKAKKKEGDRKPRASKEDNRAGSRREDL
modifications: left off: small tags and cut ends
notes: Recombinant full-length mouse Mesd expressed in E. coli, N-terminal polyhistidine tail, lacking the signal peptide
- 125I-Mesd binding ([1]; 5 nM, 4 hours at 4° C.): 1320 fmoles/mg cell protein
- Concentration at which Mesd specific binding saturates ([1]; LRP6-transduced HT1080 cells, 3 hours at 4° C.): > 6.4 nM
- 125I-Mesd binding to control cells (pLNCX2) [2]: No significant
- Tumor growth (tumor volume, caliper) [3]: significantly inhibit tumor growth
